# IntAct's records for PubMed 16732284
# B1: Carboxypeptidase Y-deficient protein 8 (Saccharomyces cerevisiae), P40335 (parent)
# chain: MSIFFKPPIDIEILFDNEESRKHVDIATRSSNSSYKSMKESLPVYEDGESLGGIVTLRVRDSKKVDHLGIKVSVIGSIDMLKSHGSGNSSSKKVTSSTSSSSSNGSVDVRKNSVDQFLCQSYDLCPAGELQHSQSFPFLFRDLSKRYESYKGKNVDVAYYVKVTVMRKSTDISKIKRFWVYLYNSVTTAPNTLSANETKATTNDIAGGNYAADNASDNTQTKSTQGEAADVNQVLPISHSNNEPKPVRLDIGIENCLHIEFEYAKSQYSLKEVIVGRIYFLLTRLRIKHMELSLITRESSGLQTSNVMTDSTAIRYEIMDGSSVKGETIPIRLFLSGYDLTPNMSCNYFNVKNYLSLVIIDEDGRRYFKQSEITLYRTR
# Variants of: B1
# Details: with vps35_human VPS35, Q96QK1
row,Variant,effect of a mutation on the interaction
1,MSIFFKPPIDIEILFDNEESRKHVDIATRSSNSSYKSMKESLPVYEDGESLGGIVTLRVRDSKKVDHLGIKVSVIGSIDMLKSHGSGNSSSKKVTSSTSSSSSNGSVDVRKNSVDQFLCQSYDLCPAGELQHSQSFPFLFRDLSKRYESYKGKNVDVAYYVKVTVMRKSTDISKIKRFWVYLYNSVTTAPNTLSANETKATTNDIAGGNYAADNASDNTQTKSTQGEAADVNQVLPISHSNNEPKPVRLDIGIENCLHIEFEYAKSQYSLKEVIVGRIYFLLTRLRIKHMELSLITRESSGLQTSNVMTDSTAIRYEDDDGSSVKGETIPIRLFLSGYDLTPNMSCNYFNVKNYLSLVIIDEDGRRYFKQSEITLYRTR [I318D;M319D],disrupting interaction
